Drawing on publication PMC5147862, this text covers Kd for 1 molecule.

As a reminder, the Kd is the equilibrium constant for the complex coming apart. The low end stands for higher affinity, the high end for lower affinity.

The target in this assay is KRAS, mGppNHp-bound (human) (UniProt P01116). Put plainly: fluorescence polarisation; MBP-tagged effector domain (0.05-100 μM) titrated to 1 μM RAS-mGppNHp; 50 mM Tris/HCl pH 7.5, 100 mM NaCl, 5 mM MgCl2, 3 mM dithiothreitol, 25°C; quadratic ligand binding equation. A general note: Fluorescence polarisation rises when a labelled molecule tumbles more slowly, as on binding a larger partner.

B1: RAS association (RA) domain of RASSF5, MBP fusion (domain or fragment)
chain: EETQRPPTLQEIKQKIDSYNTREKNCLGMKLSEDGTYTGFIKVHLKLRRPVTVPAGIRPQSIYDAIKEVNLAATTDKRTSFYLPLDAIKQLHISSTTTVSEVIQGLLKKFMVVDNPQKFALFKRIHKDGQVLFQKLSIADRPLYLRLLAGPDTEVLSFV
B1: the dissociation constant (Kd) worked out at 421 nM.
